As a reminder, the stoichiometry N is a count of units in the complex or per binding partner.

The text below walks through data of doi:10.1101/2023.08.16.553618, “Structure of C. elegans TMC-2 complex suggests roles of lipid-mediated subunit contacts in mechanosensory transduction” (bioRxiv, 2023).

The data set concerns the molecule itself. Nature of the data set: cryo-EM structure; single particle cryo-EM of the native TMC-2 complex isolated from worms in GDN with 1 mM CaCl2; cis-dimeric particles; 2 nm carbon grids.

B1: C. elegans TMC-2 (transmembrane channel-like protein 2), native, with C-terminal mVenus-3C-3xFLAG (natural protein, UniProt Q11069 1-1203, looked up)
chain: MPKSGAHQPLVRHDTDDGGETGQSVKSLADVSEEEIDSRMSRRSSVIADLLSLFRRSSSVLVRPHTRLGNPNFDDDDDEFDEEDDKEASKDRILKKIQQKKEIIQKLRGQPWYMKRKRRTLKVAQKHLQQQEAKVSKARLYKAEAGRRLTQASRWLDNLKIYLIPWEAKIRKIESHFGSVVSSYFTFHRWVLGVNITITFIMCMFVVIPEWLADSRTQFGDDRYNKTKAIKVMPPAVRARADELSTVWDFGGYFQYSLLFYGFYSKETFFGETIKYRVPVAYFFCNIFILGFSLFIILRKMAANNRRGTLSSGKTQQYLFNWKAFTGWDYTIGNPETAGNVYMANVIKFREAINDDKQKPSDKHPWIRFVARVLTNLFICAMYVFSIWAIMQCGTLKGEHFFAQNATAITISLITLVFPNIFDLLGKIEKLHPRNALRFQLGRVLVLYILNYYTLIYSLMLQLEHLQKEKNASDNPISALGHPGDAIGRTIRETVLPRYPVDNNPHTYYSYAPVTTTPIPATSSWTTVLPDFGPFGVYNPKASVTKDDTVFSSPVVETHMFGPNSDWNETTVNAASPTGATTRASLRMSQGGLCWETIIGQEITKLVTMDLYMTVASIFLIDFLRGLACRYLNLYWPWDLERTFPEYGEFKVAENVLHLVNNQGMIWLGLFFVPLLPMLNNIKLIILMYIRGWAAMTCNVPASQIFRASRSSNFFFALLILFLFLCTLPVGFVIASKTPSKSCGPFGNQSFFYSVITDVLHENLDKTLVNGIKYSLSPGIIIPVLVLLSLVIYFLIAMVTGLSQANQDLSFQLMVERTEEKKKIFELAGGKKKKSKDNTFGKQKPKQLLPPPTKGVSSDDDSQHNRSTAKSVSGRQFVPSLGSVSEVDHSTGEEQSSDSESTTSSLPPKLSLRQRFLVCIGWADPNKYGRHDDIEMEEGGGRLRELSTGSETDSDDEDSEKSNRDMSYRTAIQSFDQNSQSASASSSKSTTTAPSNSEMRIEITENPLHTYITPLRIEKKSSASSSSSSHQPSSSIEKQAARRLLQPISTTHNIRYGVATVENSSQDPTRPPSTDDSLGDPALHEPLWANLNPHSSYTSAMMSPIMNEVMSNDETTDDEKGRLIPDRPPIPHSPRELKRLKREKDQQSESGSKPSTPRPPRFRISMSPPRKPPSEKNDSDSSNRKYEMRVEKSPKKPKKSDND
modifications: N-glycans at N225 and N748 (density features)
notes: TMC-2, C. elegans, Wormbase B0416.1a; tag inserted prior to the stop codon of the endogenous gene; A 3C (PreScission) site lies between mVenus and 3xFLAG; The complex was captured by the 3xFLAG tag and eluted by 3C cleavage, so the sample for SEC, mass spectrometry and cryo-EM has mVenus but no 3xFLAG; Two copies stand in the cis-dimeric complex; Not modelled in 8TKP: M1-A88, A472-T582, …
On to B1, for which the “stoichiometry N” value came to 2.
